These results are taken from patent US5604203A, “Analogs of peptide YY and uses thereof” (University of Cincinnati, priority 1994, dated 1997).

Experiment [1] has as its system rat jejunal mucosa. The experiment in a line: Short circuit current (SCC) in voltage clamped rat jejunal mucosa (antisecretory effect). As to conditions: Table 1; reduction of baseline SCC, rat jejunum; mean of three separate experiments. The class given is cell-based. Here is the method: The antisecretory effects of the peptides were investigated by measuring the short-circuit current (SCC) in rat jejunal mucosa mounted in a Ussing chamber and automatically voltage clamped as described by Cox et al. (J. Physiol. supra). Briefly, strips of mucosa were placed between two halves of perspex Ussing chambers (window size, 0.6 cm^2) containing oxygenated (95% O2 /5% CO2) Krebs-Henseleit solution (NaCl, 117 mM, KCl 4.7 mM, CaCl2, 2.5 mM; MgSO4 1.2 mM, NaHCO3 24.8 mM and glucose 11.1 mM), pH 7.4, 37° C. […] Once a stable baseline SCC was reached, peptides were added to the basolateral reservoir only, and cumulative concentration-response profiles constructed.

For experiment [2], the target named is T1, intestinal PYY-preferring receptors (Rattus norvegicus, UniProt Q9ERC0).
T1 sequence (Q9ERC0 1-381): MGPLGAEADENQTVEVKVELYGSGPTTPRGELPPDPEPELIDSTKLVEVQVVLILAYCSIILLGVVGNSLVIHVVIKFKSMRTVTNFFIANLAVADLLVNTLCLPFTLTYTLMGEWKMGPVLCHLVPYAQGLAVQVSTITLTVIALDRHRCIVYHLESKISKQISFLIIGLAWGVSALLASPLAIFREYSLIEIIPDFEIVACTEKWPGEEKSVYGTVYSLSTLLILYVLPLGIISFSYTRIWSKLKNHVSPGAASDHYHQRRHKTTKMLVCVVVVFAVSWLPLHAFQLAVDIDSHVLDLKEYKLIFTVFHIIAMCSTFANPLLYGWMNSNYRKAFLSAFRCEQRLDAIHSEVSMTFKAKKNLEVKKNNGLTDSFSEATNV
The following applies: BINDING IC50 (nM), Table 1; 125I-PYY, rat jejunal membranes; mean of three separate experiments.
Description: Bound and free peptides were separated by centrifugation at 20,000×g for 10 min.
All points in the binding experiments are the mean of at least three experiments performed in duplicate.

Experiment [3] concerns the target PYY receptor of rat jejunal epithelial plasma membranes (rat). Nature of the experiment: competition with 125I-PYY on rat jejunal membranes.
For experiment [4] the target is unchanged. Nature of the experiment: competition with 0.05 nM 125I-PYY on rat jejunal epithelial plasma membranes.
Experiment [5] shares this target. Nature of the experiment: competition with 125I-PYY on rat jejunal epithelial plasma membranes.
For experiment [6] the target is unchanged.
Experiment [7] has the same target. The source holds these as a separate data set.
For experiment [8] the target is unchanged. The source holds these as a separate data set.
The target is the same in experiment [9]. The experiment in a line: competitive binding, done as described above (125I-PYY, rat jejunal membranes).
For experiment [10], the system named is rat jejunal mucosa. As to conditions: Cox et al. Peptides, supra; cited from earlier work.

Like-named read-outs stand apart in the source and are kept apart here. Peptide text beside a SMILES is read from it.

Regarding `CC(=O)N[C@@H](C)C(=O)N[C@@H](CO)C(=O)N[C@@H](CC(C)C)C(=O)N[C@@H](CCCNC(=N)N)C(=O)N[C@@H](Cc1ccc(Cl)cc1)C(=O)N[C@@H](Cc1ccc(O)cc1)C(=O)N[C@@H](CC(C)C)C(=O)N[C@@H](CC(N)=O)C(=O)N[C@@H](CC(C)C)C(=O)N[C@H](C(=O)N[C@H](C(=O)N[C@@H](CCCNC(=N)N)C(=O)N[C@@H](CCC(N)=O)C(=O)N[C@@H](CCCNC(=N)N)C(=O)N[C@@H](Cc1ccc(O)cc1)C(N)=O)[C@@H](C)O)C(C)C` [N-α-Ac-[p.ClPhe^26]PYY(22-36), N-α-Ac-A S L R [p.Cl.Phe^26] Y L N L V T R Q R] (HELM PEPTIDE1{[ac].A.S.L.R.[O=C([C@H](Cc1ccc(Cl)cc1)N[*:1])[*:2]].Y.L.N.L.V.T.R.Q.R.Y.[am]}$$$$V2.0), in experiment [1], the response was half-maximal at 124 nM (EC50). The same molecule showed an IC50 in experiment [2] of 50 nM.
For “Ac-ASLRHYENLVTRQRY-NH2 [N-α-Ac-[Glu^28]PYY(22-36), N-α-Ac-A S L R H Y [Glu] N L V T R Q R Y--NH2]”, in that order: 3000 nM and 44.7 nM.
For N-α-Ac-PYY(22-36) (peptide), the values for the IC50 in [3] and in experiment [4] were 0.08 nM and 1.12 nM, respectively. In experiment [5], this molecule registered a fold increase of receptor affinity against PYY(22-36) of 4 times. The same molecule had an SCC EC50 in experiment [6] of 40 nM.
Turning to “N-α-naphthaleneacetyl-PYY(22-36) (peptide)”, the SCC EC50 in [7] is more than 30000 nM; in [6], 19500 nM.
As for PYY (peptide YY) (ligand), the IC50 in experiment [3] was 0.04 nM; in experiment [4] it was 0.2 nM; in experiment [9] it was 0.1 nM. In experiment [8], this molecule displayed a maximal inhibitory response of SCC of -12.6 µA/0.6 cm^2. Also, in [7], the SCC EC50 of PYY after treatment of the tissue with the analog (1 µM) is 4.4 nM. Moreover, the SCC EC50 of PYY, nontreated controls in experiment [7] is 2.6 nM. Also, in experiment [6], the SCC EC50 worked out at 1.7 nM.
Consider [Pro^34 ]NPY: Y-1 selective agonist, for which the “sensitivity of rat jejunal epithelial receptors to agonist” value in experiment [10] is “completely insensitive”.
Turning to Ac-ASLRHFLNLVTRQRY-NH2 [N-α-Ac-[Phe^27 ]PYY(22-36)], in experiment [4], the IC50 came out at 0.8 nM. In [8], this molecule showed an antisecretory potency against PYY (times less potent than PYY) of 9 and a maximal inhibitory response of SCC of -12 µA/0.6 cm^2. Also, the percent increase of receptor affinity against N-α-Ac-PYY(22-36) in [5] turned out to be 28%. This molecule also had an SCC EC50 in [6] of 15.1 nM.
